# Results taken from patent publication US20230117205A1, “B7-H4 ANTIBODY-DRUG CONJUGATES FOR THE TREATMENT OF CANCER” (SEAGEN INC., priority 2021, published 2023).
# T1: human B7-H4 on cells (human, UniProt Q7Z7D3 25-282)
# T1 sequence: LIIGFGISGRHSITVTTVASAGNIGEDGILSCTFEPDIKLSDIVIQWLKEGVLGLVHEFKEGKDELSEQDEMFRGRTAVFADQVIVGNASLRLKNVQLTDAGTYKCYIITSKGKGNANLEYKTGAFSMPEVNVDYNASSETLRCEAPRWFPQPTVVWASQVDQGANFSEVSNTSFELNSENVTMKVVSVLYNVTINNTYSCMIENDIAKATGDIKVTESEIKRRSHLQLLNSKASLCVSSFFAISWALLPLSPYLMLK
# B1: B7H41001 mAb quenched fluorophore conjugate (antibody, human IgG1, kappa, V domains shown)
# VH: QLQLQESGPGLVKPSETLSLTCTVSGGSIKSGSYYWGWIRQPPGKGLEWIGNIYYSGSTYYNPSLRSRVTISVDTSKNQFSLKLSSVTAADTAVYYCAREGSYPNQFDPWGQGTLVTVSS
# VL: EIVMTQSPATLSVSPGERATLSCRASQSVSSNLAWYQQKPGQAPRLLIYGASTRATGIPARFSGSGSGTEFTLTISSLQSEDFAVYYCQQYHSFPFTFGGGTKVEIKR
# modifications: Cy5 dye and quencher pair attached by the same vc linker as in SGN-B7H4V; sites not stated
# What was measured:
# [1] = target: hFcγRIIa H131 (biotinylated avi-tagged, fused with monomeric Fc) (human) (UniProt P12318); assay: BLI (Octet HTX), biotinylated hFcγRIIa H131 on streptavidin biosensors, ADC in solution, 30 C, 1:1 fit
# [2] = target: hFcγRIIIa F158 (biotinylated avi-tagged, fused with monomeric Fc) (human) (UniProt P08637); assay: BLI (Octet HTX), biotinylated hFcγRIIIa F158 on streptavidin biosensors, ADC in solution, 30 C, 1:1 fit
# human B7-H4 on cells [3] = target: T1, human B7-H4 on cells; assay: IHC on cell pellets, SKBR3 cells that express B7-H4 endogenously
# human B7-H4 on cells [4] = target: T1, human B7-H4 on cells; assay: IHC on cell pellets, HCC1569 cells that express B7-H4 endogenously
# human B7-H4 on cells [5] = target: T1, human B7-H4 on cells; assay: IHC on cell pellets, HCC1954 cells that express B7-H4 endogenously
# human B7-H4 on cells [6] = target: T1, human B7-H4 on cells; assay: IHC on cell pellets, ZR-75-30 cells that express B7-H4 endogenously
# human B7-H4 on cells [7] = target: T1, human B7-H4 on cells; assay: IHC on cell pellets, MDA-MB-468 cells that express B7-H4 endogenously
# human B7-H4 on cells [8] = target: T1, human B7-H4 on cells; assay: cell-based or functional assay
# [9] = target: hFcγRI (biotinylated avi-tagged, fused with monomeric Fc) (human) (UniProt P12314); assay: BLI (Octet HTX), biotinylated hFcγRI on streptavidin biosensors, antibody in solution, 30 C, 1:1 fit
# Chain of hFcγRI (biotinylated avi-tagged, fused with monomeric Fc) (human) (P12314 16-292): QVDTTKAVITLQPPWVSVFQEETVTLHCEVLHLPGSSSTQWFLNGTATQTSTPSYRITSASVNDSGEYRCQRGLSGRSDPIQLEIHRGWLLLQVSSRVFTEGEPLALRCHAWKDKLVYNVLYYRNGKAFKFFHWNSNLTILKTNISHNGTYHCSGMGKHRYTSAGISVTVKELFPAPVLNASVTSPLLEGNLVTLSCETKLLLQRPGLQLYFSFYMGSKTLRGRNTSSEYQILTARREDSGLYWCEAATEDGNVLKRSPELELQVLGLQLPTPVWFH
# [10] = target: hFcγRIIb (biotinylated avi-tagged, fused with monomeric Fc) (human) (UniProt P31994); assay: BLI (Octet HTX), biotinylated hFcγRIIb on streptavidin biosensors, antibody in solution, 30 C, 1:1 fit
# Chain of hFcγRIIb (biotinylated avi-tagged, fused with monomeric Fc) (human) (P31994 43-217): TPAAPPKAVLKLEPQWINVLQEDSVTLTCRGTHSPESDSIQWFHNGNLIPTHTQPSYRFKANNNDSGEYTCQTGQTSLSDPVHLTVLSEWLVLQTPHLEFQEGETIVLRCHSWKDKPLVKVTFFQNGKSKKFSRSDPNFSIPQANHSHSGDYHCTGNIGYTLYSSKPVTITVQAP
# [11] = target: hFcγRIIa R131 (biotinylated avi-tagged, fused with monomeric Fc) (human) (UniProt P12318); assay: BLI (Octet HTX), biotinylated hFcγRIIa R131 on streptavidin biosensors, antibody in solution, 30 C, 1:1 fit
# Chain of hFcγRIIa R131 (biotinylated avi-tagged, fused with monomeric Fc) (human) (P12318 34-217 H167R): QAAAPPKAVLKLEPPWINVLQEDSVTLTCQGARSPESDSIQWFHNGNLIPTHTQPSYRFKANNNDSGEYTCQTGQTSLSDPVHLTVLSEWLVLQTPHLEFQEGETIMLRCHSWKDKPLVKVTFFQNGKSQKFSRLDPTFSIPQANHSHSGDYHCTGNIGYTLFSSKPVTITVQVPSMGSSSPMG
# [12] = target: hFcγRIIIa F158 (biotinylated avi-tagged, fused with monomeric Fc) (human) (UniProt P08637); assay: BLI (Octet HTX), biotinylated hFcγRIIIa F158 on streptavidin biosensors, antibody in solution, 30 C, 1:1 fit
# [13] = target: hFcγRIIIa V158 (biotinylated avi-tagged, fused with monomeric Fc) (human) (UniProt P08637); assay: BLI (Octet HTX), biotinylated hFcγRIIIa V158 on streptavidin biosensors, antibody in solution, 30 C, 1:1 fit
# Chain of hFcγRIIIa V158 (biotinylated avi-tagged, fused with monomeric Fc) (human) (P08637 17-208 F176V): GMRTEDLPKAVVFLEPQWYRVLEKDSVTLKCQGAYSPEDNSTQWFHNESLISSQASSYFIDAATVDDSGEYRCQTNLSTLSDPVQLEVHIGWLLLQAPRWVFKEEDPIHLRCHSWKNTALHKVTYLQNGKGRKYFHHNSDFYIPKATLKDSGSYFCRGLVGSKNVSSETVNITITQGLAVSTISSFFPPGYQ
# [14] = target: hscFcRN (biotinylated avi-tagged, fused with monomeric Fc) (human) (UniProt P55899); assay: BLI (Octet HTX), biotinylated hscFcRN on streptavidin biosensors, antibody in solution, pH 6.0, 30 C, 1:1 fit
# Chain of hscFcRN (biotinylated avi-tagged, fused with monomeric Fc) (human) (P55899 24-297 limits assumed, form in doubt, chain 1 of 2): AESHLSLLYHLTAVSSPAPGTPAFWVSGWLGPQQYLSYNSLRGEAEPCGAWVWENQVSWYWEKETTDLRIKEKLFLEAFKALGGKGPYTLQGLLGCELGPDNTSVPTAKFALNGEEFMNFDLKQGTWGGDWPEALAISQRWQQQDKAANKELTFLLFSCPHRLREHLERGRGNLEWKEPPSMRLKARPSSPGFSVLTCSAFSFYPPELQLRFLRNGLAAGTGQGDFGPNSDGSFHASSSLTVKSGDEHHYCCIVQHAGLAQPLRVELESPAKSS
# Chain of hscFcRN (biotinylated avi-tagged, fused with monomeric Fc) (human) (chain, as listed by the source limits assumed, form in doubt, chain 2 of 2): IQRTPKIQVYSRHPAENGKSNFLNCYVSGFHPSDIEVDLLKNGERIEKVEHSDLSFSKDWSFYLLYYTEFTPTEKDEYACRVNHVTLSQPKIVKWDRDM
molecule,measurement,setting,value
SGN-B7H4V (antibody),Kd,[1],4.2 µM
same,Kd,[2],10.4 µM
anti-B7-H4 antibody clone D1M8I,intensity score,human B7-H4 on cells [3],3
same,intensity score,human B7-H4 on cells [4],3
same,intensity score,human B7-H4 on cells [5],2
same,intensity score,human B7-H4 on cells [6],1
same,intensity score,human B7-H4 on cells [7],3
non-binding control ADC (antibody),"x50 (ng/mL), in vitro cytotoxicity, MDA-MB-468, 96 h, 3D spheroid, CellTiter-Glo",human B7-H4 on cells [8],> 1000 ng/mL
same,"x50 (ng/mL), in vitro cytotoxicity, MX1, 96 h, 3D spheroid, CellTiter-Glo",human B7-H4 on cells [8],> 1000 ng/mL
same,"x50 (ng/mL), in vitro cytotoxicity, SKBR3, 96 h, 3D spheroid, CellTiter-Glo",human B7-H4 on cells [8],> 1000 ng/mL
positive control mAb (the anti-CD70 mAb h1F6) (antibody),Kd,[9],0.0018 µM
same,Kd,[10],29 µM
same,Kd,[11],3.1 µM
same,Kd,[12],4.8 µM
same,Kd,[13],0.78 µM
same,Kd,[14],0.0103 µM
B1,"apparent half-life of the increase of fluorescent signal (internalization, quenched fluorophore assay on SKBR3 and MX-1 cells)",human B7-H4 on cells [8],3.2 to 4.9 h
